Drawing on PMC8238500, this text covers response for 1 sequence.

Common to all, as to test: BRET (NanoLuc-miniG recruitment to plasma-membrane K-ras-YFP)
The target in assay [1] is NES-NanoLuc-MiniG subtype miniG12. The settings on record: 500 ng receptor plasmid; parent: est. 0.020; read off a plot.
Assay [2] addresses NES-NanoLuc-MiniG subtype miniGi. The settings on record: 500 ng receptor plasmid; parent: est. -0.023; read off a plot.
The target of assay [3] is NES-NanoLuc-MiniG subtype miniGq. The settings on record: 500 ng receptor plasmid; parent: est. -0.030; read off a plot.
The target of assay [4] is NES-NanoLuc-MiniG subtype miniGs. The settings on record: 500 ng receptor plasmid; parent: est. 0.092; read off a plot.

As to “G protein-coupled receptor 3 (GPR3), wild type (from UniProt P46089) DRY-mutant”, the response is 0.027 AU in assay [1], -0.013 AU in assay [2], -0.015 AU in assay [3] and 0.011 AU in assay [4].
